Results: PMC6375650 (2019)
Substitutions are numbered along the chain they refer to. Names and notes keep the numbering of the source.

B1: H7.5 Fab H-M73R (Fab, V domains shown)
VH: QVQLVQSGAEVKKPGASVKVSCKASGYTLTRYYFHWVRQAPGQGFEWMGIINPNGGGTSYAQKFGDRVIMTSDRSTSTIYMELSSLRSEDTAVYYCARDMPYYHDSGGPLFDLWGQGTLVTVSS
VL: EIVMTQSPSSLSASVGDRVTITCRPSQSISTFLNWYEQKPGKAPKLLIYDASSLQSGVPSRFSGSGSGTEFTLTISSLQPEDFATYYCQQSFSTPYTFGQGTRLEIK
B2: H7.5 Fab H-S74K (Fab, V domains shown)
VH: B1 VH with R74M, S75K
VL: B1 VL
B3: H7.5 Fab H-S58W (Fab, V domains shown)
VH: B1 VH with S59W, R74M
VL: B1 VL
B4: H7.5 Fab L-T94Q (Fab, V domains shown)
VH: B1 VH with R74M
VL: B1 VL with T94Q
B5: H7.5 Fab H-T57A (Fab, V domains shown)
VH: B1 VH with T58A, R74M
VL: B1 VL
B6: H7.5 Fab L-Y96A (Fab, V domains shown)
VH: B1 VH with R74M
VL: B1 VL with Y96A

Each binder was assayed against H7 Sh2 HA (A/Shanghai/2/2013), ectodomain trimer, cleavage state not stated (influenza A virus (A/Shanghai/2/2013)) (assay: BLI).

Binder	Kd
B1	< 0.1 nM
B2	< 0.1 nM
B3	> 1000 nM
B4	> 1000 nM
B5	116 nM
B6	549 nM
